The results in this text go back to the DeepSol protein solubility set.

A short description of the data set: soluble on expression in E. coli; label from the status in PepcDB or PDB records.
“MSLTWVSVEAKIDYELDPTVLFHLTEENAGDRFYYKKNDNKTSFFGYHAITRFKNDFENKQSIFREWQKYKSDIELIHPSSDKHHLKICGGFQFSMHKSGDEWREFGINHFILPEVLITMENGVSYITYTVKAEQFEIEQFKALIAHLTQNTIDSEFEIGNIKRIEDIYKDEWRDLVKDTIDVLDEHKKIVLARKRLVMFDKNINIPYILQKASQGEHNSYLFVLESQDSIFFSQTPEQLMEVNNGILSTKAVAGTIKRTHQDEVDKENIQAFLNDDKNLNEHRFVVESILNDIAPYVRDITFNETPQILTNDHLYHLYTKIKGQLENDSYIGLLDNLHPTPALGGYPKAEAIEYIEQNEFGTRGLYGAPVGYIDMNDDCEFIVAIRSMLIKKNQATLFAGCGIVKNSDADSEVEETAVKFNPMMKALGVEEYEGHHHHHH”: the “soluble on expression in E. coli” value is recorded as “not soluble”.

On to “MGSDKIHHHHHHMELKEHFNNKIFKLISETADELGLECYVVGGYVRDIFLKRPSKDIDVVVVGSGIEMAQAFGRKLGRGARVSVFKNFGTAQIKYHDTEVEFVGARKESYSHDSRKPVVENGTLEDDQNRRDFTINAMAVCLNKARFGELVDPFNGLDDLKERTIRTPLDPDITFSDDPLRMMRCVRFATQLNFYIDDTTFEALSRNKERIHIISKERIADELNKILLAPIPSKGFIELDRCGLLPLIFPELVALQGVETRNGRAHKDNFYHTLEVVDNISKHTDNLWLRWATLLHDIGKPRTKRWEPRIGWTFHNHNFIGEKMVPDLFRKMKLPMNEKMKYVQKLVSLHMRPIVIADDVVTDSAVRRLLFEAGDDIDDLMMLCEADITSKNEARKQKFLDNFKLVRQKLKDLEEKDRIRNFQPPVDGEEIMRIFDLQPCREIGSLKSSIKDAILDGIIPNEHDAALEHMLKKAKSMGLTPKNL”, for which the “soluble on expression in E. coli” value is listed as “not soluble”. Under “MHPDQKKTFKEKNDIRKKLFNSTKEERLDWRKMKDEKKRKNEEKIIKEAEEAKKAKIEKVDHTPPFTISIAVPGQFLNNAQSAELRTYMAGQIARAATLYRVDEIIIYDESCRMTDEAVNAYYNGTWQGNLIPAETNYEGCFYLAKILEYLECPQYLRKDLFPIQKPLKNAGLLNPLDAQHHLKYDEKTLRFREGVVLKKRSKDGRGPICNIGLEKEFEIDSDAVQLPPYTRVTVEIKNLTEQCKLYRGSITSGATVTRETGLYWGYSVRLMTGLQKVLQAKKFDIVAGVSPRGKLASQMDVCILNKPKILLVFGGVAGVDAAVESEELAEWRRAEDAFDVLIRTTSLSNGSRSERVEENVLSVLAQVQCHLETLNAL” stands “not soluble”; under “MGSDKIHHHHHHMKLVCAQSDLSTNLSLVNRAVPSRPTHPVLANVLLQADAETNQVSLTAFDLSLGIRTSFNADVWQSGAIALPAKLLVDITSRLPEGEITLDDESATDGTATGEGLIVSLTPKTGKYQLRAMGAEEFPELPLIENTTAIYLTATSLIEGLRGSLFATSGDETKQVLTGVHLTVKQDTLEFAATDGHRLAVVETTNERPLEDNDQQLEVTVPARALRELERMLAHNAASEEPIALYLDQGQVIFAWQNQRLTSRTLEGQYPAYRQLIPRQFERQVTIERRQFLSTLERIAVLADQKNNIVKLTIDSTAQELTLSCEAQEMGSGRESMNAEIAGEDIEIAFNVKYLMEGLKALPSPEIQMHINQNLTPVIFTPLGGLKMTYLAMPVQLRN”, “not soluble”. Take “MRDYKQLNGLALAYVGDAIYEIYIRDYLVSLGQTKPNVLHRMATHYVSAKAQASLMQAMLAGEMLTEEEEVMYKRGRNAKSHTFAKNADVTTYRVATGFESLMGYLHLTQQKERLEELINWCIKKVGETNEK”: the “soluble on expression in E. coli” value is “not soluble”. On to “MEQINEKNFNFYNRIGLDTFQALAKDGGFSTFVDLEIAYRYIQPTENIAEIGAGYGRCIDFLLAKKHQGKIIAVEQSPKLCEHLRAVYSSTIKIVEGDIYKVSFDHQIDAALWMWSGMIDFSVEEQAAVIKHIHELLTQKGKLFIDIPRIGIKTIADHIDQQRIKLTTDFGEIECYIPLSSEVKEYADAAGFTRVDEINYETATDKKRTMYILMK”, for which the “soluble on expression in E. coli” value is “not soluble”. Turning to “MLAERLVNDYDVEVLTTCVKNYVTGDNEYPEGEEILNGVLVRRFYSDPVEPDLHKSYVRQAAPAKKWRHFLYRCRLLKPLSYVKPIWHYKEQEEIKALNSQVFYSSSMYAFIRENKASYRAFIPLSFFPHTYYTALYAPEKTILIPTMHNNGSSFRSIITSVFSEVAYIGFNIEAEQKLVENIVGKPLAAHGIISVGIEKTKAADWEQTKVKYNLPEDYLLYVGRIDAIKLNNIVDYFLSYKKKYVGSRLKLVLVGGIFGKTVEHPDIIYTGFVDDAEKVAIQLNAKVIVNPSRYESLSLILLETMSEGKAMLVNGRCNVLREHCEKSNYAALYYMNRRDFMRKLHNLENSETLRQQMGEKGRHYVQENYNWEMIIGRMKNVIQMLS”, the “soluble on expression in E. coli” value is “not soluble”. As to “MAKEIYSKYPMVKYLRKEALPTALCPGCGGGTVLNAFANAIDQLKIDPRDLVVVSGIGCSAWIASPYFLADTLHTTHGRAIAFATGVKVGLPDKYVVVISGDGDLASIGGNHLIHAARRNIDITVILVNNFIYGMTGGQVAPTTPFGAITTTTPYRNIEHPLNIAETVAAAGASYVARWTTAHVYQLIESIKKAITTKGFSLVEVISQCPVQFGRRNKMKQPAEMLRWFLKNSVPISKAKNMSEEELEGKFIVGEFVNRRKPEFVGELNKLIREVQSKFKEE”, the “soluble on expression in E. coli” value was “not soluble”. In the case of “GSHMASKPIEDYGKGKGRIEPMYIPDNTFYNADDFLVPPHCKPYIDKILLPGGLVKDRVEKLAYDIHRTYFGEELHIICILKGSRGFFNLLIDYLATIQKYSGRESSVPPFFEHYVRLKSYQNDNSTGQLTVLSDDLSIFRDKHVLIVEDIVDTGFTLTEFGERLKAVGPKSMRIATLVEKRTDRSNSLKGDFVGFSIEDVWIVGCCYDFNEMFRDFDHVAVLSDAARKKFEK”, the “soluble on expression in E. coli” value is “soluble”.

Take “MGSDKIHHHHHHMIPIVDSRIGAYLDGLLPEADPVVAAMEQIARERNIPIVDRQTGRLLYLLARIKQPQLVVVPGDGLGCASWWFARAISISSRVVMIDPDRDNVEHARRMLHDNGLIDRVELQVGDPLGIAAGQRDIDILFMDCDVFNGADVLERMNRCLAKNALLIAVNALRRGSVAESHEDPETAALREFNHHLSRRRDFFTTIVPVGNGVLLGYRLS”: the “soluble on expression in E. coli” value was “not soluble”. Regarding “MAGDPNSMTVSHHNASTARFYALRLLPGQEVFSQLHAFVQQNQLRAAWIAGCTGSLTDVALRYAGQEATTSLTGTFEVISLNGTLELTGEHLHLAVSDPYGVMLGGHMMPGCTVRTTLELVIGELPALTFSRQPCAISGYDELHISSRLEHHHHHH”, the “soluble on expression in E. coli” value is reported as “soluble”. Take “MMTKYGVVGTGYFGAELARFMSKVEGAKITAIYDPVNAAPIAKELNCVATATMEALCSHPDVDCVIIASPNYLHKAPVIAAAKAGKHVFCEKPIALNYQDCKDMVDACKEAGVTFMAGHVMNFFHGVRHAKALIKAGEIGEVTQVHTKRNGFEDVQDEISWKKIRAKSGGHLYHHIHELDCTLFIMDETPSLVSMAAGNVAHKGEKFGDEDDVVLITLEFESGRFATLQWGSSFHYPEHYVLIEGTTGAILIDMQNTAGYLIKAGKKTHFLVHESQAEDDDRRNGNISSEMDGAIAYGKPGKRTPMWLSSIMKLEMQYLHDVINGLEPGEEFAKLLTGEAATNAIATADAATLSSNEGRKVKLTEILGLEHHHHHH”: the “soluble on expression in E. coli” value is given as “soluble”. Take “MKTTPVTPDDLQRSVIAVPPLARHADLTLNPAANQAVLRHLEAGGVRSVMYGGNANFYHVQVSEYAQLLDFLAESAGPDTWVLPSAGPDYGKLMDQAAILRTRDFPTAMLLPMSFPYTDAGLADGIRRFSDAMDRPAVVYIKSSDYLAPATVARLIGEGRIAALKYAVVREDPARDPYLDALLKEVDPRWIVSGIGERPAIVHFRQFGLRSFTSGSVCVAPRGSMRLLHLLHQGDFEAAEQVRAAYIPLEDCRDGISPIRVLHDAVTLAGVADMGPMLPLLSGLDPADRERVAPVARALLAGDRQ”: the “soluble on expression in E. coli” value was “not soluble”.

With “MSLAQIVTSTKSCTVNPLRMSQPLGAALAFMGLRNCMPLLHGSQGCTSFGLVLFVRHFRESIPLQTTAMSEVATVLGGFENVEQAIVNIVGRTKPDVIGICTTGVTEIKGDDLDGYIKMVRANHPELANVALVPVSTPDFKGAFEDGFAATVTRIVETLVETPAEGAAPDADRINVLAGSHLTPGDIDELRDIIEAFGLVPTFLPDISGSLDGHVPDDFTPTTHGGVSVAEVVAMGGAGHTLAFGEHMRKAAAALEAKAGVPFTLLSRVTGLAAADELMATLAKISGRPVPPKYRRQRSQLVDAMLDGHFYFGGKSVAIGAEPDMLLNIGGWLADMGCTVSAAVTTTTSPSLAQVPSDEVLIGDLEDLERRAEDCDLLVTHSHGRQAAERLSVPLFRMGLPMFDRLGAVHQVAVGYRGTRDLIFAIGNLFIANIKEPDVNSWRSASACPDQTDAEGHHHHHH”, the “soluble on expression in E. coli” value is reported as “soluble”.

Turning to “MGSDKIHHHHHHKTRTVFVCQQCGAQQSRWMGKCPECGAWDSLVEQIVTPARGTGGQRAATVGQNQPIRLRDVPLTDFQRLPVYAEEFARVLGGGLVPGSVVLIGGDPGVGKSTLLGQVAAHFAASVGPALYVSAEESAQQIRLRAERLGLTADDLFLLAETSLDLIIEHIRHLRPRLVIVDSIQTVYLPELTSAAGSVSQVREGALRLMQLAKETAIPIVLVGHVTKEGAIAGPRVLEHIVDVVLYLEGDRFHQFRLLRGGKNRFGSTNEVGVFEMTGDGLREVRNPSQVFLAERNTQSPGSTVTVTLEGTRPLLVEVQALTSHTGNAQPRRTTNGFDLNRLLMLTAVLSKRVGLPLFNQDLYVNIVGGLRIGEPAADLAVALAIASSYRNQRIASRSGLPW”, the “soluble on expression in E. coli” value is “not soluble”.

As for “MTRDDDDDEDDEEEEDSGAWGRESYAFDGFHPTEEFGFSFSPRGGMRFHGNFGFDDLVRDFNSIFSEMGAWTLPSHSPELPGPESETPGVRLREGQTLRDSMLKYPDSHQPRIFEGVLESHAKPESSKPAPDWGSQGPFHRLDDTWPVSPHSRAREDKDLDSQVSQEGLGPLLQPQPKSYFKSISVTKITKPDGTVEEHRTVVDGEGRRETTVTHQEAHDSSRSDPDPPRSSALDDPFSILDLLLGRWFRSR”, the “soluble on expression in E. coli” value was “not soluble”. Consider “SSGGGTETPVACDAAQGGKKRDSLGTPGAAHLIIKDLGEIHSRLLDHRPVTQGEIRYFVKEFEEKRGLRELRVLKNLENTIQETNECLLPKCRETMECGLGETLQRLQAANDSICRLQQREQERKKVINDYLTASEKRRLVQWEEFVSGQPQRRAEVDEEHRRAVERLREQYAAMEKDLAKFSTF”, for which the “soluble on expression in E. coli” value is recorded as “soluble”.

Take “SMDMKQQNFCVVELLPSDPEYNTVASKFNQTCSHFRIEKIERIQNPDLWNSYQAKKKTMDAKNGQTMNEKQLFHGTDAGSVPHVNRNGFNRSYAGKNAVAYGKGTYFAVNANYSANDTYSRPDANGRKHVYYVRVLTGIYTHGNHSLIVPPSKNPQNPTDLYDTVTDNVHHPSLFVAFYDYQAYPEYLITFRK”: the “soluble on expression in E. coli” value is recorded as “soluble”. As for “EGLLNNHLDIPTATTQALTIQPSASYRINDHWSVGAALGIQYGMYEVETKGALNFNDEDQDTQLNGRVGVLYEATPGTRLGLSYSSETEFEFDNSNSIAPQQLIFSAYHEVNDDLAVMWNVNWQDWSEYTTTLKAADLVDVETQDTYQIALGTQYKLNEKMMWNAGFAFDTSMYESQSNGDITVPTGKAYRIGTGIDYKLDSENSIGFAFEAVLMESSETPRLQAGFDEPALYFMSMSYNWKN”, the “soluble on expression in E. coli” value is recorded as “not soluble”. As to “MGFFDRLKAGLAKTRERLLKAIPWGGNLEEVLEELEMALLAADVGLSATEEILQEVRASGRKDLKEAVKEKLVGMLEPDERRATLRKLGFNPQKPKPVEPKGRVVLVVGVNGVGKTTTIAKLGRYYQNLGKKVMFCAGDTFRAAGGTQLSEWGKRLSIPVIQGPEGTDPAALAYDAVQAMKARGYDLLFVDTAGRLHTKHNLMEELKKVKRAIAKADPEEPKEVWLVLDAVTGQNGLEQAKKFHEAVGLTGVIVTKLDGTAKGGVLIPIVRTLKVPIKFVGVGEGPDDLQPFDPEAFVEALLED”, the “soluble on expression in E. coli” value is “soluble”.
